# Measured values as given in the supplement of paper PMC12667976.
# ± gives the standard error.
# B1: library; numbered along this chain (parent)
# chain: MATDAALRRLLRLHRTEIAVAVDSAFPLLHALADHDVVPEDKFQETLHLKEKEGCPQAFHALLSWLLTQDSTAILDFWRVLFKDYNLERYGRLQPILDSFPKDVDLSQPRKGRKPPAVPKALVPPPRLPTKRKASEEARAAAPAALTPRGTASPGSQLKAKPPKKPESSAEQQRLPLGNGIQTMSASVQRAVAMSSGDVPGARGAVEGILIQQVFESGGSKKCIQVGGEFYTPSKFEDSGSGKNKARSSSGPKPLVRAKGAQGAAPGGGEARLGQQGSVPAPLALPSDPQLHQKNEDECAVCRDGGELICCDGCPRAFHLACLSPPLREIPSGTWRCSSCLQATVQEVQPRAEEPRPQEPPVETPLPPGLRSAGEEVRGPPGEPLAGMDTTLVYKHLPAPPSAAPLPGLDSSALHPLLCVGPEGQQNLAPGARCGVCGDGTDVLRCTHCAAAFHWRCHFPAGTSRPGTGLRCRSCSGDVTPAPVEGVLAPSPARLAPGPAKDDTASHEPALHRDDLESLLSEHTFDGILQWAIQSMARPAAPFPS
# Variants of: B1
# Test: AIRE transcriptional activation functional score (insulin promoter-GFP; nonsense median 0, synonymous median 1) (normalised score); higher = higher AIRE activity (more reporter activation)
# Conditions: with insulin promoter-GFP reporter in HEK293
# Method: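 Deep mutational scan of full-length human AIRE (codon-optimized cDNA, DT-POPCode NNN libraries over three regions) integrated at a Bxb1 landing pad in HEK293 cells carrying an insulin core promoter-GFP reporter at a Flp-In site. Cells were sorted for the top 10% GFP about 14 days after transfection. Variant frequency log-ratios (select vs non-select, TileSeq) were rescaled so that the nonsense median is 0 and the synonymous median is 1, then averaged over biological replicates.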
row,Variant,AIRE transcriptional activation functional score
1,Q108I,-0.272 ± 0.29
2,H319K,1.15 ± 0.065
3,E517Q,0.0484 ± 0.048
4,E517A,-0.0659 ± 0.29
5,S169I,1.2 ± 0.35
6,R272D,1.21 ± 0.23
7,R272C,1.3 ± 0.18
8,S185F,0.468 ± 0.24
9,C475N,0.255 ± 0.099
10,C475H,0.16 ± 0.15
11,A58I,-0.388 ± 0.57
12,A58L,0.0439 ± 0.2
13,A58E,-0.0545 ± 0.48
14,A58V,0.221 ± 0.19
15,A58P,-0.271 ± 0.71
16,V214E,0.383 ± 0.1
17,P286Y,1.65 ± 1
18,C310G,0.824 ± 0.27
19,S196N,0.962 ± 0.096
20,N295Q,0.995 ± 0.28
21,G421H,-0.132 ± 0.31
22,G421N,0.869 ± 0.064
23,A352K,0.997 ± 0.11
24,P125C,0.918 ± 0.33

row,Variant,AIRE transcriptional activation functional score
1,A264C,0.799 ± 0.16
2,G251I,1.2 ± 0.27
3,F59T,0.102 ± 0.45
4,D503S,0.908 ± 0.26
5,S187Q,0.823 ± 0.13
6,S187Y,0.152 ± 0.12
7,L417G,0.679 ± 0.13
8,P200D,0.545 ± 0.11
9,C299L,0.726 ± 0.28
10,L122D,1.44 ± 0.14
11,L409E,0.899 ± 0.095
12,L409T,1.02 ± 0.11
13,T46C,0.841 ± 0.26
14,P289V,1.09 ± 0.2
15,A284L,1.02 ± 0.29
16,P27E,-0.123 ± 0.26
17,E137R,0.377 ± 0.72
18,K253S,0.754 ± 0.35
19,P360V,0.911 ± 0.18
20,E171K,0.709 ± 0.61
21,L428R,0.941 ± 0.13
22,L428C,0.816 ± 0.14
23,G313L,1.28 ± 0.1
24,G180E,0.208 ± 0.15

row,Variant,AIRE transcriptional activation functional score
1,I74F,-0.0221 ± 0.088
2,H458K,0.374 ± 0.17
3,H458Q,0.165 ± 0.27
4,E270P,1.64 ± 0.2
5,C314A,0.983 ± 0.3
6,A202C,1.39 ± 0.17
7,A191L,0.166 ± 0.29
8,V37I,0.337 ± 0.18
9,V37S,-0.316 ± 0.64
10,A343W,1.93 ± 0.13
11,G178Q,0.33 ± 0.56
12,G178T,1.11 ± 0.67
13,E363A,1.1 ± 0.16
14,E363W,1.59 ± 0.026
15,D514L,0.0834 ± 0.22
16,L529F,0.323 ± 0.16
17,S412D,0.652 ± 0.19
18,D238K,0.355 ± 0.12
19,D238A,1.15 ± 0.37
20,D238V,1.23 ± 0.14
21,A373R,0.736 ± 0.065
22,P401L,0.646 ± 0.35
23,A537H,0.783 ± 0.12
24,R203T,0.744 ± 0.16

row,Variant,AIRE transcriptional activation functional score
1,G369C,1.25 ± 0.12
2,P109F,1.16 ± 0.068
3,C434M,0.34 ± 0.084
4,C434E,0.289 ± 0.11
5,L97H,2.81 ± 0.29
6,K259H,0.439 ± 0.14
7,K259N,1.03 ± 0.069
8,P315G,0.618 ± 0.35
9,C223P,0.562 ± 0.33
10,G467N,0.68 ± 0.09
11,K165W,1.06 ± 0.12
12,A271G,0.722 ± 0.38
13,A145Y,1.66 ± 0.23
14,S99P,1.51 ± 0.14
15,V256F,1.33 ± 0.23
16,V256I,0.599 ± 0.084
17,D515Y,0.405 ± 0.039
18,W455L,1.03 ± 0.18
19,C337R,1.12 ± 0.25
20,C337I,0.888 ± 0.13
21,S217G,1.1 ± 0.24
22,S217F,0.411 ± 0.46
23,P405S,1.05 ± 0.31
24,P405T,1.16 ± 0.16

row,Variant,AIRE transcriptional activation functional score
1,L210H,0.71 ± 0.062
2,G462M,-0.0181 ± 0.26
3,G462A,0.924 ± 0.07
4,P115F,1.5 ± 0.58
5,S168K,1.08 ± 0.18
6,C311I,0.604 ± 0.2
7,L320F,1.19 ± 0.046
8,L320V,0.976 ± 0.19
9,C449N,-0.014 ± 0.099
10,G263S,1.23 ± 0.24
11,G263T,1.06 ± 0.28
12,A404E,0.954 ± 0.15
13,L87H,-0.266 ± 0.27
14,A261M,1.19 ± 0.06
15,L7F,-0.323 ± 0.33
16,Q213I,-0.822 ± 0.11
17,G227Q,1.02 ± 0.26
18,G227I,-0.209 ± 0.36
19,A141V,1 ± 0.36
20,P367A,0.781 ± 0.26
21,R9N,1.38 ± 0.35
22,Q225C,-0.424 ± 0.056
23,K221R,0.95 ± 0.12
24,A317K,0.241 ± 0.092

row,Variant,AIRE transcriptional activation functional score
1,L283G,0.798 ± 0.17
2,P361R,0.983 ± 0.14
3,L13T,0.418 ± 0.36
4,S287M,1.29 ± 0.072
5,G155F,1.61 ± 0.35
6,G155L,0.509 ± 0.4
7,P499W,1.37 ± 0.043
8,H48V,1.53 ± 0.17
9,P490D,0.28 ± 0.1
10,A281F,1.63 ± 0.22
11,A281W,1.53 ± 0.049
12,G277E,1.3 ± 0.2
13,R79L,0.11 ± 0.67
14,R79A,0.0777 ± 0.15
15,A170R,1.29 ± 0.37
16,A170G,0.778 ± 0.51
17,C340Q,1.33 ± 0.12
18,G382Q,1.24 ± 0.18
19,G382K,0.449 ± 0.17
20,R494P,0.439 ± 0.34
21,P119L,0.904 ± 0.3
22,M194T,0.367 ± 0.34
23,V348A,1.1 ± 0.16
24,V348W,1.37 ± 0.074

row,Variant,AIRE transcriptional activation functional score
1,A186Y,-0.165 ± 0.23
2,A186T,0.873 ± 0.31
3,A186E,0.734 ± 0.25
4,I18K,0.219 ± 0.83
5,A19Y,-2.2 ± 0.58
6,D288W,1.59 ± 0.078
7,D288V,1.14 ± 0.17
8,T463P,1.14 ± 0.17
9,A540R,0.119 ± 0.26
10,R316D,1.42 ± 0.15
11,K245N,0.375 ± 0.48
12,P368N,1.58 ± 0.068
13,P400N,0.58 ± 0.082
14,P544L,1.19 ± 0.1
15,D410A,1.09 ± 0.064
16,V301D,0.644 ± 0.28
17,S518N,0.216 ± 0.021
18,P154F,1.89 ± 0.11
19,V443M,1.29 ± 0.095
20,V479F,0.98 ± 0.093
21,W78S,0.301 ± 0.46
22,V377A,0.734 ± 0.31
23,Q346K,0.899 ± 0.15
